We go through 1 molecule from patent publication US20060121465A1, “Sgk and nedd used as diagnostic and therapeutic targets” (priority 2002, published 2006).

For this assay, the target named is T1, Sglt1 (Homo sapiens, UniProt P13866).
T1 construct: expressed in transfected cells; host or cells: Xenopus laevis oocytes injected with in vitro synthesized cRNA
T1 sequence (P13866 1-664): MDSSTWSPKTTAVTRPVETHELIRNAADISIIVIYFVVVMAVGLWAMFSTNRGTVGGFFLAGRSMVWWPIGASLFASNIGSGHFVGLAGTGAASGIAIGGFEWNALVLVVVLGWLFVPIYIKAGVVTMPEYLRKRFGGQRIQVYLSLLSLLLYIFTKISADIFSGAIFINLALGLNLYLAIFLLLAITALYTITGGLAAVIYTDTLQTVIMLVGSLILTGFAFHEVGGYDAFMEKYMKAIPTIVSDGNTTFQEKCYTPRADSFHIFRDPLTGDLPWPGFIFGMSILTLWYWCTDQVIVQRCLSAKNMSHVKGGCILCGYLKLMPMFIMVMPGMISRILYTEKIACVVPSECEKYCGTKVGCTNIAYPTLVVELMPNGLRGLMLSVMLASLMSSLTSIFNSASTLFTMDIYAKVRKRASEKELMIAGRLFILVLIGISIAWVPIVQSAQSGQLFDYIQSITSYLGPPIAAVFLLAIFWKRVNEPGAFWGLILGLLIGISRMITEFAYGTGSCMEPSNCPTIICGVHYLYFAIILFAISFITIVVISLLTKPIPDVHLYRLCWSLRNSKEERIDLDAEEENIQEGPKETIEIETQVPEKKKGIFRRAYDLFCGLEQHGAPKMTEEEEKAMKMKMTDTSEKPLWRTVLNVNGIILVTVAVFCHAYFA
The experiment in a line: Two-electrode voltage clamp of glucose-induced currents in Xenopus laevis oocytes expressing Sglt1. It counts as cell-based. The text has this: cRNAs encoding wild-type Sgk1 [Waldegger S, Barth P, Raber G, Lang F: Cloning and characterization of a putative human serine/threonine protein kinase transcriptionally modified during anisotonic and isotonic alterations of cell volume. […] Biochem J. 1999; 339: 319-28], wild-type Sgk3 and PKB [Kobayashi T, Deak M, Morrice N, Cohen P. Characterization of the structure and regulation of two novel isoforms of serum- and glucocorticoid-induced protein kinase. Biochem J. 1999; 334: 189-97], consitutively active ^T308D,S473DPKB [Alessi D R, Cohen P. Mechanism of activation and function of protein kinase B. Curr. Opin Genet Dev. 1998; 8: 55-62], wild-type Nedd4-2 [Debonneville C, Flores S Y, Kamynina E, Plant P J, Tauxe C, Thomas M A, Munster C, Chraibi A, Pratt J H, Horisberger J D, Pearce D, Loffing J, Staub O. Phosphorylation of Nedd4-2 by Sgk1 regulates epithelial Na(+) channel cell surface expression. EMBO J. 2001; 20: 7052-7059] and wild-type Sglt1 [Hediger M A, Coady M J, Ikeda T S, Wright E M. Expression cloning and cDNA sequencing of the Na^+/glucose co-transporter. Nature. 1987; 330: 379-381] were synthesized in vitro [Wagner C A, Friedrich B, Setiawan I, Lang F, Bröer S: The use of Xenopus laevis oocytes for the functional characterization of heterologously expressed membrane proteins. Cell Physiol Biochem 2000; 10: 1-12]. Dissection of the Xenopus laevis ovaries, and collection and treatment of the oocytes, have already been described in detail [Wagner C A, Friedrich B, Setiawan I, Lang F, Broer S: The use of Xenopus laevis oocytes for the functional characterization of heterologously expressed membrane proteins. Cell Physiol Biochem 2000; 10: 1-12]. The oocytes were injected with 5 ng of human sglt1, 7.5 ng of human sgk1, ^K127Nsgk1, ^S422Dsgk1, sgk3, PKB or ^T308D,S473DPKB, and/or with 5 ng of Xenopus nedd4-2. Control oocytes were injected with water. Electrophysiological experiments were carried out at room temperature for 3 days after the respective cRNAs had been injected. The currents which were induced by the extracellular administration of 20 mM or 5 mM glucose were measured using a two-electrode voltage clamp [Wagner C A, Friedrich B, Setiawan I, Lang F, Broer S: The use of Xenopus laevis oocytes for the functional characterization of heterologously expressed membrane proteins. Cell Physiol Biochem 2000; 10: 1-12] and taken as a measure of the glucose transport. The data were filtered at 10 Hz and analyzed using a MacLab Digital to Analog Converter and corresponding software (AD Instruments, Castle Hill, Australia). The control bath solution (ND 96) contained 96 mM NaCl, 2 mM KCl, 1.8 mM CaCl2, 1 mM MgCl2 and 5 mM HEPES, pH 7.4. All the substances were used at the stated concentrations. The final solutions were titrated with HCl or NaOH to the stated pH or pH 7.4. The flow rate of the superfusion solution was 20 ml/min and achieved complete change of solution within 10 s.
For the calculations, the data were quoted as arithmetic means±SEM. n is the number of oocytes investigated. All the experiments were carried out in at least three different groups of oocytes. Qualitatively similar data were obtained in all the repeats. The results were tested for significant differences using Student's t test. Only results giving P<0.05 were made use of as being statistically significant.
A general note: Two-electrode voltage clamp holds a large cell at a set potential and records current.

B1: Sgk2: isoform of Sgk, coexpressed in oocytes (protein, UniProt Q9HBY8 1-367, looked up)
Serine/threonine-protein …: MNSSPAGTPSPQPSRANGNINLGPSANPNAQPTDFDFLKVIGKGNYGKVLLAKRKSDGAFYAVKVLQKKSILKKKEQSHIMAERSVLLKNVRHPFLVGLRYSFQTPEKLYFVLDYVNGGELFFHLQRERRFLEPRARFYAAEVASAIGYLHSLNIIYRDLKPENILLDCQGHVVLTDFGLCKEGVEPEDTTSTFCGTPEYLAPEVLRKEPYDRAVDWWCLGAVLYEMLHGLPPFYSQDVSQMYENILHQPLQIPGGRTVAACDLLQSLLHKDQRQRLGSKADFLEIKNHVFFSPINWDDLYHKRLTPPFNPNVTGPADLKHFDPEFTQEAVSKSIGCTPDTVASSSGASSAFLGFSYAPEDDDILDC
Consider B1, for which the “stimulation of glucose transport by additional coexpression” value (further series of experiments (FIG. 5), coexpressed with Sglt1 and Nedd4-2) is listed as “no significant effect”. In addition, the “glucose-induced current increased by coexpression” value (further series of experiments (FIG. 5, procedure as in FIG. 4), coexpressed with Sglt1) was “no statistically significant effect”.
